The results in this text go back to paper PMC12598741 (2025).

Targets include h11A4 x L15-4 hIgG4; h11A4 x L15-1 hIgG4; h11A4 x L15-2 hIgG4; h11A4 x L15-3 hIgG4; h11A4 x L15-5 hIgG4; 17C7 x L15 hIgG4; L15.
Experiment in all cases: BLI

B1: mouse CD16 (mCD16), his-tagged (receptor)
chain: ALPKAVVKLDPPWIQVLKEDMVTLMCEGTHNPGNSSTQWFHNGRSIRSQVQASYTFKATVNDSGEYRCQMEQTRLSDPVDLGVISDWLLLQTPQRVFLEGETITLRCHSWRNKLLNRISFFHNEKSVRYHHYKSNFSIPKANHSHSGDYYCKGSLGSTQHQSKPVTITVQDPATTSSISLVWYHT
By Kd is commonly meant a measure of binding affinity in units of concentration. In the case of B1, the Kd with h11A4 x L15-4 hIgG4 was 211 nM; in the test with h11A4 x L15-1 hIgG4, 163 nM; with h11A4 x L15-2 hIgG4, 119 nM; with h11A4 x L15-3 hIgG4, 218 nM; in the test with h11A4 x L15-5 hIgG4, 197 nM; with 17C7 x L15 hIgG4, 16.3 nM. The Kd with L15 worked out at 126 nM.
